Laboratory results: publication doi:10.1101/2023.06.26.546492

Target: His-SUMO-tagged full-length SARS-CoV-2 nsp14 (SARS-CoV-2) (UniProt P0DTD1)
Assay: MST

short SARS-CoV-2 nsp10 construct (from UniProt P0DTD1 4264-4385) (domain or fragment)
Kd: 13.9 µM
